In US20170080102A1:

Key:
[1] = biological target: CD33 protein (human), on primary patient AML cells and AML cell lines (human) (UniProt P20138); experiment: cell-based or functional assay
[2] = biological target: CD33 protein (human), on primary patient AML cells and AML cell lines (human) (UniProt P20138); experiment: cell-based or functional assay; remark: listed apart in the source

Sequence of UniProt P20138 (P20138 18-364): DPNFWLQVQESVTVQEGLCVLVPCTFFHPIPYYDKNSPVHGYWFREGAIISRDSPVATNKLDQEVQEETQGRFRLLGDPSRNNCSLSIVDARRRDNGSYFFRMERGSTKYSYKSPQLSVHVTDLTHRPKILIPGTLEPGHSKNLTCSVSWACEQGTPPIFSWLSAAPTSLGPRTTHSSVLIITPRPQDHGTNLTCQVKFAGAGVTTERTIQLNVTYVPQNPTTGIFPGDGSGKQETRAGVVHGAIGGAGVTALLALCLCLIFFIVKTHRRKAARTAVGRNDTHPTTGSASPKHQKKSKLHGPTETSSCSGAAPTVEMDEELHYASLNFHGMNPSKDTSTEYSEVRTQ

Molecule | IC50, cytotoxicity against primary patient AML cells [1] [pM] | IC50, cytotoxicity on MOLM-13 FLT3-ITD AML cell line (WST-8 assay) [2] [pM] | IC50, cytotoxicity on MV4-11 FLT3-ITD AML cell line (WST-8 assay) [2] [pM] | IC50, cytotoxicity on a panel of 21 AML cell lines (WST-8 assay) [2] [pM] | IC50, cytotoxicity on a panel of 21 AML cell lines (WST-8 assay), median [2] [pM] | IC50, in vitro cytotoxicity against primary patient AML cells [2] [pM]
non-binding chimeric IgG1-DGN462 conjugate (antibody) | > 1000 | – | – | – | – | –
IMGN779 (anti-huCD33 antibody huMy9-6 conjugated to DGN462 via a cleavable disulfide sulfo-SPDB linker) (antibody, from a related filing, V domains shown) VH: QVQLQQPGAEVVKPGASVKMSCKASGYTFTSYYIHWIKQTPGQGLEWVGVIYPGNDDISYNQKFQGKATLTADKSSTTAYMQLSSLTSEDSAVYYCAREVRLRYFDVWGQGTTVTVSS VL: EIVLTQSPGSLAVSPGERVTMSCKSSQSVFFSSSQKNYLAWYQQIPGQSPRLLIYWASTRESGVPDRFTGSGSGTDFTLTISSVQPEDLAIYYCHQYLSSRTFGQGTKLEIKR | – | 5 | 2 | 2 to 3000 | 70 | 10 to 1500
